According to the DeepSol protein solubility set:

Assay: soluble on expression in E. coli; label from the status in PepcDB or PDB records

| Sequence | soluble on expression in E. coli |
| --- | --- |
| MNVVKISPRGYCYGVVDAMVLARQAAQNLDLPRPIYILGMIVHNKHVTDAFEEEGIISLDGPNRLDILKQVDKGTVIFTAHGVSPQVRKLAKEKGLTVVDATCPDVTRTHDLIREKSQEGYKFIYVGKKGHPEPEGAIGVAPEFVHLVENVEDVESLDISADKIIITNQTTMSQWDVSEIMKKAMEKYPQAEVHNEICLATQVRQEAVAEQARECDLVIVVGDPKSNNSNRLAQVSEQIAGTKAYRIGDVTELQQEWFDGVETVGVTAGASTPTPITKEVIAFIEKYDPSKPETWTPERKVTLQKILPKVKIKKLEHHHHHH | soluble |
| MLQIEKIVSNKGNDLSLRWNLLKKIDHFQCLTSLTRLNLNDNQIEKLENLETLVNLVFLDVSYNRITKIEGLSELINLEELHLVHNKIITIEGLETNTAMKYLEFGDNRIQKMENLSHLVNLERLFLGANQIRKIEGLDGMAQLKELSLPGNALQIIEGLDTLSGLKSISLAQNGIRKIDGLSGLTNLKSLDLNDNIIEKLENVEQFKGISSLMIRKNKLNCWQDVRQLKKLENLTVLTMEMNPLYSSDYTYRNRVKEILPDVKLLDGFPIFWVQGDPYQPIPEEFYEMGDVYVTSPTFVGHDTGSILAIDCHPSGKKFITCGQKARTSNGLVVVWNAEPVLDKKKASNENVPKLLFQVESQSQSNSCRWSPDGKRFAFGSDDSSVSVWEYVGLINSMGSITGGAQNVERYKECCVLRGHSMEVLTVEWSPNGKYLASGSIDYRIIIYNARKLPDRITVLNDIQLPVKGLSWDPIGKYLASLEGDKKLRFWATDSWQCVKSVTEPFESNIEETMLTRLDWSPDGKYLMTPAAVRSGKPLIKLIQRQTWKSDQFLAGHHKGTTCVRAMPRLIEANLKNGKRMQLTCAAVGSRDKSISIWVFPGTLKPLFVINNIFNHTVMDFAWCGRNLLACSQDGTVKVIHLSESVIGEMISNEAMSDLCYQIYSIRPPRYELTDKEEDESQDSFNLSDLSSSANNASFVTCPEDVLIKRKKLVAAQQSSDIQLTKSMEDNSKENESKNSEKTMMEERNKQIDVRKDGKRRIQPVFCGTTTADPMTSLSSEGKKTVAPPPAKRKALAPAVPAKKGEVDLEDSSDSDDDDEEEEEDMEISDIESVRNKKRKVPATTSQPMLALDLKKPALRPMEPKSLKTQEGTVLMEAPEQQPKLSQHVVDRKGMFVEIDNRWKHGGVETTQIKLIKKKQQTAENEDDMMDGERRVNHECLWMAVLGSPVIIVAANKHNVVLGCGDKCLRVYRTFCGTHIVSLRLDSLPVLIGVTEHAAYALTENGRLSTWNLKLGKAVVTRQPLFDCVEASTDNSLISADVSETGVPLIVFSNGSIFTFNVSLSCWIQAITTNVLGRLTSPISDAQLSCSNGTTNSAGPLVRLLKRMRKQATAPGVAPQVVKAVKESQLEQLLHCAEQLGNPQDYQTMLMLYVETLCEGGSEKKLKNILNDLSRSGAPMQVCGLRRSALYDDVTRMIKLKQPAIAARIVAGVAASTTTKSLF | not soluble |
| MNLESITVVLPTRNEAGNIGAFLASLPQAVHLIVVDASEDETPDIIQRERPARTQVLRRRSTITQARQLGAEAALTDWLLFTDADIVFPDGYFDALERVMDAAVVYGPKLSRDRFAAYYRWFGYGQQCSHWLGIPAATGSNLLVRKDALIAVGGFDPALVCNEDSELVWRIKRAGYRIRFEPSLPVYARDHRRLDSGLWRKTCHSVFRCALLYWDLMPARWRGADWGYWSPQQSGRAPGVSRVELEHHHHHH | not soluble |
| MKGMRGPGESRDTAMAVEQDIFDAVVMADERFHGEGYQEGYEEGSSLGIVEGKRYGMVHGAKIGSEIGCYRGFALAWKCLLHSGAGEKDSRKMKVVEALIALLQDFPYDDPTYEKLHEDLDRIRGKFRQLCSLLNVQPDFKVTPGGSGLAF | soluble |
| MSLTSFSRLNTNLLQLKSKHSSDNAQHLYVNGNVGSSTEEITSVEYSKLLQLKLIDESLSFQWCNNYTVLSIYSMKETFARKTIYIHFPKPLLNKWFTAVVYESSETTSNLCFDVILKDGIFINLSLPIDFILSRTRQNEYPENWLKVLNPYDFSVRPPQCLFHVDNTFSVVFLKDGGLLGLKRIPLEILNDFELQPVLFNDSSYFQSFTRMFSKYDNHNSAVVSAELLNDKYLVTLTNDATIKIWDLTTYQLNAHFDLKEKNQQVNYGAAGKYMIICGSLLFVYLPAGNGSFQVIQLENTHSSRISFKPLNVNIPLNLSSYSIWSLIDIQLVKSSIVKQSGLNLVLLWKSNTVTKLQLLSFEDSLYSSYKWIDGNSTYLSDLLDDSDLITNGNMEKALLNLKSHYSQSTYDDAQKILNKNNVMVQINDPHNQDYLNNLEALLKELHKQYQEPSTLTILDDEIIVVNSLHMYHHSTYKLDSQLETIFFNIFERKEPSSQLELFLNILHGFSTTITSETLNKISEKFLDMVNGSINPSLSLKNKITIVFQDCLTNGFQSANLSKLLENLNSIDVVEVLSEFIHCDLKVGAFSVIDLLDTDIFLSVLSMESLKQTLSIMDKFIIDILLVFTIVDINYEVFAEKLSKLITLHFNISLWLQVYQIDKLLAISETFGHVTKYNYGAQLKSYSDITDFTTLMVGFVKNSEGHHHHHH | not soluble |
| MIIREATVQDYEEVARLHTQVHEAHVKERGDIFRSNEPTLNPSFFQAAVQGEKSTVLVFVDEREKIGAYSVIHLVQTPLLPTMQQRKTVYISDLCVDETRRGGGIGRLIFEAIISYGKAHQVDAIELDVYDFNDRAKAFYHSLGMRCQKQTMELPLLEHHHHHH | soluble |
| MGSDKIHHHHHHMKLETIDYRAQDSAQRFVESLRETGFGVLSNHPIDKALVDTIYEEWQAFFNSDEKHDYLFKPETHDGFFPADVSETAKGHTVKDIKEYYHVYPWGRIPDSLRENILRYYQEANALAEELLGWVEAHTPAEVAVNYSIALPKMIENSHKTLLRILHYPPMSGDEELGAIRAAAHEDINLLTVLPAANEPGLQVKAKSGEWLDVPSDFGNLIINIGDMLQEASGGYFPSTTHRVVNPEGADKTRSRISLPLFLHPKPEVVLSERYTADSYLMERLRELGVI | not soluble |
| MSLNQIDRLLTIMQRLRDPENGCPWDKEQTFATIAPYTLEETYEVLDAIAREDFDDLRGELGDLLFQVVFYAQMAQEEGRFDFNDICAAISDKLERRHPHVFADSSAENSSEVLARWEQIKTEERAQKAQHSALDDIPRSLPALMRAQKIQKRCANVGFDWTTLGPVVDKVYEEIDEVMYEARQAVVDQAKLEEEMGDLLFATVNLARHLGTKAEIALQKANEKFERRFREVERIVAARGLEMTGVDLETMEEVWQQVKRQEIDLEGGSHHHHHH | soluble |
| MGSDKIHHHHHHMIRILMGSYGSGKTEISINLALKLKSSGKDVSLVDLDVVTPYFRLRDLKKKLEELGIHVVTVGDNLRYSDLPIIPKNTDWLSSEEAVIDTGGEDGAKAVGALRHLMNGKNTHTYFVVNAFRPFCERPEDIIENLKKISTLSKMKIDFLINNSNLGDMTTAEVVLEGERIVSEVSRKTGIKVLFTVVPEELIDPPETDYPLFSIRRFMKRKLGIGGMRT | not soluble |
| MSLESYVPNNEAKFPENISYGSMGGPTFSTVISELGGGKEQRKVNWTHSRNRYNVAYNTASSDQCSALISFFYAHRGKALPFRFKDWSDYTATGQNIGVGDGKSLNFQLVKRYHAGQYSYVRKISRPVVGTVKMSLGEVSQEYERDYSVDYNSGVVTFAVPPAHNATIHADFEFDVLVRFDTDFLAFAMEAHGNYGCHGVSLVEVSEEGHHHHHH | soluble |
| MVTVVDRVTDRRLRHPEKAHRPDTSVQKKPDWIRVKAPTSQVYKETHGIVRAHKLVTVCEEAGCPNIGECWSQRHASFMILGEICTRACAFCNVATGIPFAVDENEPERVADAVARMELKHVVITSVDRDDLADGGAEHFAKVIYAIRRKAPKTTIEVLTPDFRHKDGALEIVVAAKPDVFNHNLETVPSKYLKVRPGARYFHSIRLLQRVKELDPTIFTKSGIMVGLGEERNEILQLMDDLRSADVDFMTIGQYLQPTRKHHPVIRFVPPEEFESFAKIGKVKGFLHMASNPLTRSSHHAGDDFAILQKARDEKFALQR | not soluble |
| MSNSVTNFEMSSVLPGKKPCQGKNNESQVVQTTPIKKHSVTFKNQSSLGVIDHYARLTNKSHSSVIAEVVDLAIPILEKCNRHNWSINEIKNDLLKFSIKESINRSRGKTEVTLEEYCSLIWKTNIMSPLKIPIADYFQLNANDEFMGKDEKTVIRERLSSLRENYDMEKAIYIYNQRHFDVKHQSVSGYSNIILIHRTTFEGYYFDAGQALLLSTSQLIIFGINEVLRRKGIVMPYPVVCWIDIYHVNEMVVMLPVLRKTDVSNRVNVPDDIIINPYSQESRT | soluble |
